Test results from patent US20240101670A1.

Target: Human C1q (human) (UniProt P02745)
Experiment: ELISA: antibody coated on the plate at the concentration shown, human C1q added at 10 ug/mL, detection with sheep anti-human C1q-HRP, OD450

Human C1q (human), sequence (P02745 23-245 limits assumed, chain 1 of 3): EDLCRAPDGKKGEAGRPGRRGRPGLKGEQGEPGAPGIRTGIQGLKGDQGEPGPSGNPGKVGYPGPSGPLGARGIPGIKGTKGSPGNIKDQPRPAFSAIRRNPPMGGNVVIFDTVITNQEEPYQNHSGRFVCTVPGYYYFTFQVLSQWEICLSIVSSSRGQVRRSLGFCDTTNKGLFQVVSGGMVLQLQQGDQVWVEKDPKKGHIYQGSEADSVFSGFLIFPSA
Human C1q (human), sequence (P02746 28-253 limits assumed, chain 2 of 3, further chain): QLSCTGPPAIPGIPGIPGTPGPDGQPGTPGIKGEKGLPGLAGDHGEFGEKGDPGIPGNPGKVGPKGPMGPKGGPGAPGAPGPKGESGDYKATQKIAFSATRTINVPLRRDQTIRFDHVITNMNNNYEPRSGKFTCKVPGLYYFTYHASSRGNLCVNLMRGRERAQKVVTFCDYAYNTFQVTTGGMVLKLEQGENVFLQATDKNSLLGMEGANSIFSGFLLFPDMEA
Human C1q (human), sequence (P02747 29-245 limits assumed, chain 3 of 3, further chain): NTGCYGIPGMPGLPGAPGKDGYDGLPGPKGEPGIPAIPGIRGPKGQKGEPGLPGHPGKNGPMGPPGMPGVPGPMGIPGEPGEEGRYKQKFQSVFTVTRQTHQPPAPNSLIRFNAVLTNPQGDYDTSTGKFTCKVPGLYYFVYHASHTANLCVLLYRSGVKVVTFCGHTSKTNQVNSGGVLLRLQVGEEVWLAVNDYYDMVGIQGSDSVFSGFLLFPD

EC50 (read off the curve): 2 µg/mL
Substance: human IgG1 isotype control antibody
